Test results taken from patent publication US20170226155A1.
Where no end group is shown, it is not given here. [ ]: non-standard residue; d: D form. The star is where a group is joined. NMeF = CN[C@@H](Cc1ccccc1)C(=O)O; boroPro = OB(O)[C@@H]1CCCN1*

Biological target: Dipeptidyl amino peptidase type IV (DPP IV)
Experiment: cell-based or functional assay

Row | IC50 at ten minutes, pH 2 | IC50 at ten minutes, pH 8 | IC50, pH 2 (Tetrapeptide Prodrugs) | IC50, pH 8 (Tetrapeptide Prodrugs) | Binder
1 | 2 µM | 25 µM |  |  | AAV[boroPro] [AlaAlaValboroPro]
2 | 10 µM |  | 10 µM |  | PPP[boroPro] [ProProProboroPro]
3 | 2 µM | 2.7 µM |  |  | [NMeF]PA[boroPro] [N-Me-Phe-PRO-ALA-PRO boronic acid]
4 | 20 nM | 21 nM | 20 nM | 21 nM | APV[boroPro] [AlaProValboroPro]

More lines, now with the values behind:

Row | Binder | IC50 at ten minutes, pH 2 | IC50 at ten minutes, pH 8 | IC50, pH 2 (Tetrapeptide Prodrugs) | IC50, pH 8 (Tetrapeptide Prodrugs)
5 | YPA[boroPro] [Tyrosine-proline-alanine-proline boronic acid] | 15 nM | 17 nM |  | 
6 | APP[boroPro] [AlaProProboroPro] | 8.3 µM |  | 8 mM | 
7 | FPA[boroPro] [Phenylalanine-proline-alanine-proline boronic acid] | 6 nM | 8 nM |  | 
8 | GPP[boroPro] [GlyProProboroPro] | 8.6 µM | 20 µM | 9 µM | 
9 | GPV[boroPro] [GlyProValboroPro] | 17 nM | 46 nM | 17 nM | 46 nM
